The data set deals with the molecule itself. The data set can be described thus: crystal structure; HALC3_919 alone, 2.1 Å, space group P 21 3, PDB 9C7Z.

Consider one protein from publication doi:10.1101/2024.11.03.621760 (bioRxiv, 2024).

B1: HALC3_919 (designed binder)
chain: MSGSEELLEELRELLERLQELLELIEQGKITPEQLREAIALLIEVLQILYEALRELAEQLQRLREELG
notes: also called HALC3_919 trimerization domain; source: E. coli, purified (Ni-NTA, SNAC cleavage, SEC)
As for B1, the stoichiometry N (in general, a count of units in the complex or per binding partner) turned out to be 3.
